Results as given in US10272233B2, “Method to fabricate polymeric microneedles” (National University of Singapore, priority 2012, dated 2019).
Blank lines part the entries; values can stand above or below the compound they belong to.

Tests used:
[1] = cited from earlier work
[2] = In vitro release of rhodamine B from microneedle arrays in 1×PBS at 37° C.; format: physicochemical; conditions: within the first hour, rhodamine B encapsulated in PEGDA microneedles and backing layer
Protocol: Encapsulation of a Model Drug: Imaging and In Vitro Release Rhodamine B was dissolved in the prepolymer solution at a concentration of 0.09, 0.17 and 0.44 weight %, respectively. The drug-laden microneedle samples were imaged using a fluorescence stereomicroscope (Nikon, Japan). The amount of drug encapsulated in the microneedles was calculated from the percent weight of the drugs in the prepolymer solution and the weight of fabricated microneedles. Selective incorporation of rhodamine B in the backing layer or microneedle shafts was made possible by using the prepolymer solutions containing the model drug to fabricate the backing layer or microneedles respectively. In vitro release of rhodamine B was tested by suspending fabricated microneedle arrays in 15 ml of 1×PBS, at 37° C. and sampled at regular intervals. At each sampling point, the whole 15 ml of release medium was withdrawn and replaced with 15 ml of fresh 1×PBS. The samples were stored at 4° C. before analysis. The amount released was quantified by measuring rhodamine B fluorescence at excitation and emission wavelengths of 554 nm and 586 nm, respectively, with a Tecan 2000 microplate reader (Tecan, Austria). In Vitro Permeation Through Rat Skin

[3] = Collagen permeation through microneedle pretreated rat skin (confocal fluorescence); format: in vitro ADME
Protocol: Microneedles of the longest range of length were inserted into excised rat abdominal skin. Hair and fat were removed as mentioned previously. The skin was fully stretched on a thin layer of PDMS to mimic tissue-like mechanical support. A force of 10 N was applied using the digital force gauge (Dillon GL, USA) for 2 minutes. Bovine skin collagen type 1, FITC conjugate (MW=300 kDa) of concentrations 0.025, 0.050 and 0.075% w/v was obtained by diluting the stock collagen solution (0.1% w/v) withappropriate amount of 0.1 M Tris-HCl buffer (pH 7.8) containing 0.4 M NaCl, 10 mM CaCl2 and 0.25 M glucose. NaCl and CaCl2 aid in stabilizing the collagen molecules and glucose is added to prevent gelation of the collagen fibers. Each collagen concentration was applied to separate skin samples at the area of insertion. The time of contact between the collagen solution and the skin was kept constant at 4 hours at room temperature, after which excess collagen on the skin surface was removed using Kimwipe (Kimberly-Clark, Roswell, Ga.). The degree of permeation of collagen through the skin was quantified by using the A-1R confocal microscope (Nikon, Japan) to observe the fluorescence intensity of collagen type 1, FITC conjugate at excitation and emission wavelengths of 490 nm and 520 nm respectively. […]

[4] = Circular dichroism, secondary structure stability of BSA in microneedles; format: physicochemical; conditions: far UV CD 260-200 nm; microneedle release samples stored 3 days at 37° C.; degraded control: 75° C. or pH 2
Protocol: Circular dichroism (CD) spectroscopy was performed on the samples to evaluate the secondary structural characteristics of bovine serum albumin in the fabricated microneedles. The analysis was performed in a Jasco J-810 spectropolarimeter (Jasco, Tokyo, Japan) with a 1 mm light path quartz cell (Helima, Müllheim, Germany). Data was acquired at a bandwidth of 0.1 nm with a scan speed of 50 nm/min and a response time of 8 seconds. […] The microneedle release samples were first filtered using micro-centrifugal concentrators, (30 kDa cut-off) (Vivaspin 20, GE, UK) to separate the protein from polymer. Average value from triplicate measurements was used to plot the curve of molar ellipticity to wavelength. Molar ellipticity was calculated using the following equation: […]
The percentage of α-helix was calculated from the following equation
[formula] Tertiary Structure Stability

[5] = Fluorescence spectroscopy, tertiary structure stability of BSA in microneedles; format: physicochemical; conditions: excitation 280 nm
Protocol: In order to evaluate the tertiary structural changes in the protein conformation, fluorescence spectra was analyzed for protein samples. […] The emission spectra were studied in the range of 300-400 nm at a fixed excitation wavelength of 280 nm using a Hitachi F-7000 fluorescence spectrophotometer. The fluorescence intensities were plotted against wavelength as an average of triplicate measurements.

Compound: O=C(O)CN(CC(=O)O)Cc1cc2c(cc1O)Oc1cc(O)c(CN(CC(=O)O)CC(=O)O)cc1C21OC(=O)c2ccccc21 [calcein]
log P [1]: −5.02

encapsulated drug released [2]: ~30%
Compound: CCN(CC)c1ccc2c(-c3ccccc3C(=O)O)c3ccc(=[N+](CC)CC)cc-3oc2c1.[Cl-] [rhodamine B, Rhodamine B]
log P [1]: 2.43

Compound: bovine collagen type 1, FITC conjugate: model macromolecule, MW=300 kDa, applied to microneedle pretreated skin
diffusion of collagen molecules after treatment of skin with microneedles [3]: greatly enhanced

Compound: degraded BSA: BSA degraded by heating at 75° C. and under acidic conditions of pH 2
secondary structure / ellipticity by circular dichroism [4]: significantly lower ellipticity values | fluorescence ([5]; BSA denatured using heat or acid, emission 300-400 nm): did not show any fluorescence

Compound: standard solution of BSA: standard BSA solution 0.026 mg/ml in purified water
emission maximum ([5]; standard BSA solution, scanned 300-400 nm): 338 nm
